In test [1] the target is HIV-1 BX08 envelope glycoprotein gp160 expressed from the synthetic gene syn.gp160BX08 (HIV-1 BX08). In words: flow cytometry (FACS) on transfected 293 cells, mean of duplicates.
For test [2], the target named is HIV-1 BX08 envelope glycoprotein gp160 expressed from the wild type gene wt.gp160BX08 (HIV-1 BX08). The test is described as above.
Test [3] addresses HIV-1 BX08 envelope glycoprotein gp160 expressed from the synthetic gene syn.gp160BX08 (HIV-1 BX08). In words: flow cytometry (FACS) on transfected 293 cells, PE-labelled rat anti-mouse IgG1 as secondary.
The target of test [4] is HIV-1 BX08 envelope glycoprotein gp160 expressed from the wild type gene wt.gp160BX08 (HIV-1 BX08). Described as above.

Several values for one entry are separate records, joined by “and”; a condition that tells them apart may be missing. Identical values can stand only once.

Experimental findings from US6649409 are described below.

Take “mouse monoclonal IgG antibody to HIV gp120 (NEA-9301, NEN Life Science Products Inc., Boston)”: the mean % of cells stained came to 48% in test [1] and 11% in test [2]. The % of cells stained (C: Primary Ab and secondary Ab added) is 36.9% and 58.4% in test [3]; 14.4% and 7.51% in test [4]. Moreover, the % of cells stained, C-A (less control without primary antibody) in test [3] was 34.3% and 55.6%; in test [4], 11.4% and 5.56%. Moreover, the % of cells stained, C-B (less autofluorescence control) in test [3] is 34.1% and 56.3%; in test [4] it was 13% and 5.99%.
